Source: patent publication US20220041744A1 (INNATE PHARMA, published 2022)

T1: human recombinant soluble CD73 protein (human, UniProt P21589 27-547)
T1 construct: also called huCD73; rhCD73
T1 sequence: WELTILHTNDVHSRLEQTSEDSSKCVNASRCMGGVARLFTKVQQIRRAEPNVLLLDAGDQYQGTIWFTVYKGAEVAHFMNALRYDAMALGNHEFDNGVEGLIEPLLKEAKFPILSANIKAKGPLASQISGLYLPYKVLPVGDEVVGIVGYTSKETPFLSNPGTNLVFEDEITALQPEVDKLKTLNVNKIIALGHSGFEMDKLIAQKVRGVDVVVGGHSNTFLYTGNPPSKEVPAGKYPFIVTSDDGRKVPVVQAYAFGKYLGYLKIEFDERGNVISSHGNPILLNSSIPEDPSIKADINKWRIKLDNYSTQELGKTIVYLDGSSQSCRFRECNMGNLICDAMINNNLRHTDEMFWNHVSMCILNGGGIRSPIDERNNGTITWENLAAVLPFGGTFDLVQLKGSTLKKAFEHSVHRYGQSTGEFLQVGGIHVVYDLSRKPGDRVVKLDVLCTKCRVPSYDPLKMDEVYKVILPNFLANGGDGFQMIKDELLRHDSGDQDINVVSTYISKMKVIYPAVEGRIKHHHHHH

B1: H2L2 (antibody, human IgG1, V domains shown)
VH: QIQLVQSGAEVKKPGASVKVSCKASGYAFTSYNMYWVRQAPGQSLEWMGYIDPYNGGSSYNLTFKGRVTITVDKSASTAYMELSSLRSEDTAVYYCARGYGNYKAWFAYWGQGTLVTVSS
VL: DIQMTQSPSSLSASVGDRVTITCKASQSVSNDVAWYQQKPGKAPKLLIYYASTRYTGVPDRFSGSGYGTDFTFTISSLQPEDIATYYCQQDYSSLTFGQGTKLEIK
B2: H0L4 (antibody, human IgG1, V domains shown)
VH: QVQLVQSGAEVKKPGASVKVSCKASGYTFTSYNMYWVRQAPGQRLEWMGYIDPYNGGSSYNLTFKGRVTITRDTSASTAYMELSSLRSEDTAVYYCARGYGNYKAWFAYWGQGTLVTVSS
VL: DVQMTQSPSSLSASVGDRVTITCKASQSVSNDVAWYQQKPGKAPKLLIYYASTRYTGVPDRFSGSGYGTDFTFTISSLQPEDIATYFCQQDYSSLTFGQGTKLEIK
notes: H0 VH limits counted by alignment with H1
B3: H0L0 (antibody, human IgG1, V domains shown)
VH: QVQLVQSGAEVKKPGASVKVSCKASGYTFTSYNMYWVRQAPGQRLEWMGYIDPYNGGSSYNLTFKGRVTITRDTSASTAYMELSSLRSEDTAVYYCARGYGNYKAWFAYWGQGTLVTVSS
VL: DIQMTQSPSSLSASVGDRVTITCKASQSVSNDVAWYQQKPGKAPKLLIYYASTRYTGVPSRFSGSGSGTDFTFTISSLQPEDIATYYCQQDYSSLTFGQGTKLEIK
notes: variable-domain limits counted by alignment with H1 and L1
B4: H0L3 (antibody, human IgG1, V domains shown)
VH: QVQLVQSGAEVKKPGASVKVSCKASGYTFTSYNMYWVRQAPGQRLEWMGYIDPYNGGSSYNLTFKGRVTITRDTSASTAYMELSSLRSEDTAVYYCARGYGNYKAWFAYWGQGTLVTVSS
VL: DVQMTQSPSSLSASVGDRVTITCKASQSVSNDVAWYQQKPGKAPKLLIYYASTRYTGVPDRFSGSGYGTDFTFTISSLQPEDIATYYCQQDYSSLTFGQGTKLEIK
notes: as for B2
B5: H4L2 (antibody, human IgG1, V domains shown)
VH: QIQLVQSGAEVKKPGASVKVSCKASGYAFASYNMYWVRQAPGQSLEWIGYIDPYNGGSSYNLTFKGKATLTVDKSASTAYMELSSLRSEDTAVYYCARGYGNYKAWFAYWGQGTLVTVSS
VL: DIQMTQSPSSLSASVGDRVTITCKASQSVSNDVAWYQQKPGKAPKLLIYYASTRYTGVPDRFSGSGYGTDFTFTISSLQPEDIATYYCQQDYSSLTFGQGTKLEIK
B6: H1L3 (antibody, human IgG1, V domains shown)
VH: QIQLVQSGAEVKKPGASVKVSCKASGYTFTSYNMYWVRQAPGQRLEWMGYIDPYNGGSSYNLTFKGRVTITRDKSASTAYMELSSLRSEDTAVYYCARGYGNYKAWFAYWGQGTLVTVSS
VL: DVQMTQSPSSLSASVGDRVTITCKASQSVSNDVAWYQQKPGKAPKLLIYYASTRYTGVPDRFSGSGYGTDFTFTISSLQPEDIATYYCQQDYSSLTFGQGTKLEIK
B7: H4L3 (antibody, human IgG1, V domains shown)
VH: QIQLVQSGAEVKKPGASVKVSCKASGYAFASYNMYWVRQAPGQSLEWIGYIDPYNGGSSYNLTFKGKATLTVDKSASTAYMELSSLRSEDTAVYYCARGYGNYKAWFAYWGQGTLVTVSS
VL: DVQMTQSPSSLSASVGDRVTITCKASQSVSNDVAWYQQKPGKAPKLLIYYASTRYTGVPDRFSGSGYGTDFTFTISSLQPEDIATYYCQQDYSSLTFGQGTKLEIK
B8: H3L3 (antibody, human IgG1, V domains shown)
VH: QIQLVQSGAEVKKPGASVKVSCKASGYAFTSYNMYWVRQAPGQSLEWIGYIDPYNGGSSYNLTFKGKATITVDKSASTAYMELSSLRSEDTAVYYCARGYGNYKAWFAYWGQGTLVTVSS
VL: DVQMTQSPSSLSASVGDRVTITCKASQSVSNDVAWYQQKPGKAPKLLIYYASTRYTGVPDRFSGSGYGTDFTFTISSLQPEDIATYYCQQDYSSLTFGQGTKLEIK
B9: H0L1 (antibody, human IgG1, V domains shown)
VH: QVQLVQSGAEVKKPGASVKVSCKASGYTFTSYNMYWVRQAPGQRLEWMGYIDPYNGGSSYNLTFKGRVTITRDTSASTAYMELSSLRSEDTAVYYCARGYGNYKAWFAYWGQGTLVTVSS
VL: DIQMTQSPSSLSASVGDRVTITCKASQSVSNDVAWYQQKPGKAPKLLIYYASTRYTGVPSRFSGSGYGTDFTFTISSLQPEDIATYYCQQDYSSLTFGQGTKLEIK
notes: as for B2
B10: H4L0 (antibody, human IgG1, V domains shown)
VH: QIQLVQSGAEVKKPGASVKVSCKASGYAFASYNMYWVRQAPGQSLEWIGYIDPYNGGSSYNLTFKGKATLTVDKSASTAYMELSSLRSEDTAVYYCARGYGNYKAWFAYWGQGTLVTVSS
VL: DIQMTQSPSSLSASVGDRVTITCKASQSVSNDVAWYQQKPGKAPKLLIYYASTRYTGVPSRFSGSGSGTDFTFTISSLQPEDIATYYCQQDYSSLTFGQGTKLEIK
notes: L0 VL limits counted by alignment with L1
B11: H1L4 (antibody, human IgG1, V domains shown)
VH: QIQLVQSGAEVKKPGASVKVSCKASGYTFTSYNMYWVRQAPGQRLEWMGYIDPYNGGSSYNLTFKGRVTITRDKSASTAYMELSSLRSEDTAVYYCARGYGNYKAWFAYWGQGTLVTVSS
VL: DVQMTQSPSSLSASVGDRVTITCKASQSVSNDVAWYQQKPGKAPKLLIYYASTRYTGVPDRFSGSGYGTDFTFTISSLQPEDIATYFCQQDYSSLTFGQGTKLEIK
B12: H2L4 (antibody, human IgG1, V domains shown)
VH: QIQLVQSGAEVKKPGASVKVSCKASGYAFTSYNMYWVRQAPGQSLEWMGYIDPYNGGSSYNLTFKGRVTITVDKSASTAYMELSSLRSEDTAVYYCARGYGNYKAWFAYWGQGTLVTVSS
VL: DVQMTQSPSSLSASVGDRVTITCKASQSVSNDVAWYQQKPGKAPKLLIYYASTRYTGVPDRFSGSGYGTDFTFTISSLQPEDIATYFCQQDYSSLTFGQGTKLEIK
B13: H2L3 (antibody, human IgG1, V domains shown)
VH: QIQLVQSGAEVKKPGASVKVSCKASGYAFTSYNMYWVRQAPGQSLEWMGYIDPYNGGSSYNLTFKGRVTITVDKSASTAYMELSSLRSEDTAVYYCARGYGNYKAWFAYWGQGTLVTVSS
VL: DVQMTQSPSSLSASVGDRVTITCKASQSVSNDVAWYQQKPGKAPKLLIYYASTRYTGVPDRFSGSGYGTDFTFTISSLQPEDIATYYCQQDYSSLTFGQGTKLEIK
B14: H3L4 (antibody, human IgG1, V domains shown)
VH: QIQLVQSGAEVKKPGASVKVSCKASGYAFTSYNMYWVRQAPGQSLEWIGYIDPYNGGSSYNLTFKGKATITVDKSASTAYMELSSLRSEDTAVYYCARGYGNYKAWFAYWGQGTLVTVSS
VL: DVQMTQSPSSLSASVGDRVTITCKASQSVSNDVAWYQQKPGKAPKLLIYYASTRYTGVPDRFSGSGYGTDFTFTISSLQPEDIATYFCQQDYSSLTFGQGTKLEIK
B15: H0L2 (antibody, human IgG1, V domains shown)
VH: QVQLVQSGAEVKKPGASVKVSCKASGYTFTSYNMYWVRQAPGQRLEWMGYIDPYNGGSSYNLTFKGRVTITRDTSASTAYMELSSLRSEDTAVYYCARGYGNYKAWFAYWGQGTLVTVSS
VL: DIQMTQSPSSLSASVGDRVTITCKASQSVSNDVAWYQQKPGKAPKLLIYYASTRYTGVPDRFSGSGYGTDFTFTISSLQPEDIATYYCQQDYSSLTFGQGTKLEIK
notes: as for B2
B16: H4L4 (antibody, human IgG1, V domains shown)
VH: QIQLVQSGAEVKKPGASVKVSCKASGYAFASYNMYWVRQAPGQSLEWIGYIDPYNGGSSYNLTFKGKATLTVDKSASTAYMELSSLRSEDTAVYYCARGYGNYKAWFAYWGQGTLVTVSS
VL: DVQMTQSPSSLSASVGDRVTITCKASQSVSNDVAWYQQKPGKAPKLLIYYASTRYTGVPDRFSGSGYGTDFTFTISSLQPEDIATYFCQQDYSSLTFGQGTKLEIK
B17: H3L2 (antibody, human IgG1, V domains shown)
VH: QIQLVQSGAEVKKPGASVKVSCKASGYAFTSYNMYWVRQAPGQSLEWIGYIDPYNGGSSYNLTFKGKATITVDKSASTAYMELSSLRSEDTAVYYCARGYGNYKAWFAYWGQGTLVTVSS
VL: DIQMTQSPSSLSASVGDRVTITCKASQSVSNDVAWYQQKPGKAPKLLIYYASTRYTGVPDRFSGSGYGTDFTFTISSLQPEDIATYYCQQDYSSLTFGQGTKLEIK

Target: T1, human recombinant soluble CD73 protein
Test: SPR, Ab captured on Protein A, soluble huCD73 as analyte
Description: SPR measurements were performed on a Biacore™ T200 apparatus at 25° C. Protein-A (GE Healthcare) was immobilized on a Sensor Chip CM5 (GE Healthcare). […] The entire sensorgram sets were fitted using the 1:1 kinetic binding model. Bivalent affinities and kinetic association and dissociation rate constants are calculated.
The binding of the antibodies in Table 2 of Example 1 were tested for binding to human soluble dimeric CD73 proteins and were cloned, produced and purified. Affinity and association and dissociation constants of humanized variants were assessed by SPR analysis.

| Binder | Kd [nM] | koff [s⁻¹] | kon [M⁻¹ s⁻¹] |
| --- | --- | --- | --- |
| B1 | 1.3 | 0.000155 | 118000 |
| B2 | 0.6 | 8.65e-05 | 137000 |
| B3 | 65 | 0.00882 | 136000 |
| B4 | 0.6 | 9.49e-05 | 170000 |
| B5 | 0.9 | 7.12e-05 | 77500 |
| B6 | 0.8 | 7.2e-05 | 92600 |
| B7 | 0.7 | 7.69e-05 | 110000 |
| B8 | 1.1 | 0.000105 | 95700 |
| B9 | 0.9 | 0.000127 | 144000 |
| B10 | 7.8 | 0.00123 | 158000 |
| B11 | 0.7 | 6.77e-05 | 98200 |
| B12 | 0.9 | 0.000106 | 120000 |
| B13 | 1 | 0.000123 | 120000 |
| B14 | 1 | 8.91e-05 | 90400 |
| B15 | 0.7 | 0.000119 | 168000 |
| B16 | 1.2 | 7.14e-05 | 60100 |
| B17 | 1.4 | 0.000122 | 86600 |
